Source: patent EP4578875A1
Residue numbers refer to the chain shown, from its start. Names may count otherwise.

Experiments:
[1] = biological target: CD3 (antibody antigen coated on the ELISA plate in Examples 1 to 3) (Homo sapiens (Human)) (UniProt P07766); experiment: ELISA, antigen coated, anti-human IgG-HRP; against wild-type anti-CD3 antibody
[2] = biological target: CD3 (antibody antigen coated on the ELISA plate in Examples 1 to 3) (Homo sapiens (Human)) (UniProt P07766); experiment: binding activity of the conjugated mutant compared with the wild-type antibody (ELISA as in Example 1)
[3] = biological target: CD3 (antibody antigen coated on the ELISA plate in Examples 1 to 3) (Homo sapiens (Human)) (UniProt P07766); experiment: binding activity after conjugation with different R1; method not described
[4] = biological target: CD3 (antibody antigen coated on the ELISA plate in Examples 1 to 3) (Homo sapiens (Human)) (UniProt P07766); experiment: binding activity after activation of the conjugate; method not described

Chain of CD3 (antibody antigen coated on the ELISA plate in Examples 1 to 3) (Homo sapiens (Human)) (P07766 23-126 limits assumed): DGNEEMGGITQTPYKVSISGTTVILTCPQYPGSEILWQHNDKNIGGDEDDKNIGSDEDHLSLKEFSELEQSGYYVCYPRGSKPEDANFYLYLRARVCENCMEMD

B1: anti-CD3 antibody mutant VH-M34C (antibody, V domains shown)
VH: EVQLVESGGGLVQPGGSLRLSCAASGFTFSTYACNWVRQAPGKGLEWVGRIRSKYNNYATYYADSVKDRFTISRDDSKNSLYLQMNSLKTEDTAVYYCARHGNFGNSYVSWFAYWGQGTLVTVSS
VL: QTVVTQEPSLTVSPGGTVTLTCRSSTGAVTTSNYANWVQQKPGQAPRGLIGGTNKRAPGVPARFSGSLLGDKAALTLLGAQPEDEAEYFCALWYSNLWVFGGGTKLTVL
Binder B1 has a Binding strength of mutants (EC50 mutant/EC50 wild-type) [1] of 1.1.

B2: anti-CD3 antibody mutant VL-K55C (antibody, V domains shown)
VH: B1 VH with C34M
VL: B1 VL with K55C
With B2 the Binding strength of mutants (EC50 mutant/EC50 wild-type) [1] was 0.9.

B3: anti-CD3 antibody mutant VL-R56C (antibody, V domains shown)
VH: B1 VH with C34M
VL: B1 VL with R56C
Binder B3 has a Binding strength of mutants (EC50 mutant/EC50 wild-type) [1] of 1.5.

B4: anti-CD3 antibody mutant VL-W93C (antibody, V domains shown)
VH: B1 VH with C34M
VL: B1 VL with W93C
With B4 the Binding strength of mutants (EC50 mutant/EC50 wild-type) [1] was 1.8.

B5: anti-CD3 antibody mutant VL-Y94C (antibody, V domains shown)
VH: B1 VH with C34M
VL: B1 VL with Y94C
B5 was tested, and the Binding strength of mutants (EC50 mutant/EC50 wild-type) [1] was 1.

B6: anti-CD3 antibody mutant VL-N96C (antibody, V domains shown)
VH: B1 VH with C34M
VL: B1 VL with N96C
With B6 the Binding strength of mutants (EC50 mutant/EC50 wild-type) [1] was 1.

B7: anti-CD3 antibody mutant VH-M34C conjugated with Molecule I (+20K) (antibody, V domains shown)
VH: B1 VH
VL: B1 VL
modifications: Molecule I (+20K, shown only as a drawing) conjugated on Cys 34
B7 showed a Blocking fold after conjugation (+20K) [2] of 5 fold.

B8: anti-CD3 antibody mutant VH-S53C conjugated with Molecule I (+20K) (antibody, V domains shown)
VH: B1 VH with C34M, S53C
VL: B1 VL
modifications: Molecule I (+20K, shown only as a drawing) conjugated on Cys 53
Binder B8 has a Blocking fold after conjugation (+20K) [2] of 3 fold.

B9: anti-CD3 antibody mutant VH-Y61C conjugated with Molecule I (+20K) (antibody, V domains shown)
VH: B1 VH with C34M, Y61C
VL: B1 VL
modifications: Molecule I (+20K; cleavable linker with PEG20K, shown only as a drawing) conjugated on Cys 61
For B9, the Blocking fold after conjugation [3] was 400 fold and the Blocking fold after conjugation (+20K) [2] was 400 fold.

B10: anti-CD3 antibody mutant VH-F104C conjugated with Molecule I (+20K) (antibody, V domains shown)
VH: B1 VH with C34M, F104C
VL: B1 VL
modifications: Molecule I (+20K, shown only as a drawing) conjugated on Cys 104
In the case of B10, the Blocking fold after conjugation (+20K) [2] is reported as 13 fold.

B11: anti-CD3 antibody mutant VH-S53C (antibody, V domains shown)
VH: B1 VH with C34M, S53C
VL: B1 VL
In the case of B11, the Binding strength of mutants (EC50 mutant/EC50 wild-type) [1] is reported as 1.2.

B12: anti-CD3 antibody mutant VH-W111C conjugated with Molecule I (+20K) (antibody, V domains shown)
VH: B1 VH with C34M, W111C
VL: B1 VL
modifications: Molecule I (+20K, shown only as a drawing) conjugated on Cys 111
With B12 the Blocking fold after conjugation (+20K) [2] was 6 fold.

B13: anti-CD3 antibody mutant VL-Y34C conjugated with Molecule I (+20K) (antibody, V domains shown)
VH: B1 VH with C34M
VL: B1 VL with Y34C
modifications: Molecule I (+20K, shown only as a drawing) conjugated on Cys 34
B13 showed a Blocking fold after conjugation (+20K) [2] of 8 fold.

B14: anti-CD3 antibody mutant VL-N54C conjugated with Molecule I (+20K) (antibody, V domains shown)
VH: B1 VH with C34M
VL: B1 VL with N54C
modifications: Molecule I (+20K, shown only as a drawing) conjugated on Cys 54
B14 gave a Blocking fold after conjugation (+20K) [2] of 12 fold.

B15: anti-CD3 antibody mutant VL-K55C conjugated with Molecule I (+20K) (antibody, V domains shown)
VH: B1 VH with C34M
VL: B1 VL with K55C
modifications: Molecule I (+20K, shown only as a drawing) conjugated on Cys 55
B15 gave a Blocking fold after conjugation (+20K) [2] of 5 fold.

B16: anti-CD3 antibody mutant VL-R56C conjugated with Molecule I (+20K) (antibody, V domains shown)
VH: B1 VH with C34M
VL: B1 VL with R56C
modifications: Molecule I (+20K, shown only as a drawing) conjugated on Cys 56
With B16 the Blocking fold after conjugation (+20K) [2] was 6 fold.

B17: anti-CD3 antibody mutant VL-W93C conjugated with Molecule I (+20K) (antibody, V domains shown)
VH: B1 VH with C34M
VL: B1 VL with W93C
modifications: Molecule I (+20K, shown only as a drawing) conjugated on Cys 93
For B17, the Blocking fold after conjugation (+20K) [2] was 5 fold.

B18: anti-CD3 antibody mutant VL-Y94C conjugated with Molecule I (+20K) (antibody, V domains shown)
VH: B1 VH with C34M
VL: B1 VL with Y94C
modifications: Molecule I (+20K, shown only as a drawing) conjugated on Cys 94
B18 was tested, and the Blocking fold after conjugation (+20K) [2] was 30 fold.

B19: anti-CD3 antibody mutant VL-N96C conjugated with Molecule I (+20K) (antibody, V domains shown)
VH: B1 VH with C34M
VL: B1 VL with N96C
modifications: Molecule I (+20K, shown only as a drawing) conjugated on Cys 96
With B19 the Blocking fold after conjugation (+20K) [2] was 2 fold.

B20: anti-CD3 VH-Y61C mutant conjugated with cleavable linker and R1 = PEG5K (antibody, V domains shown)
VH: B1 VH with C34M, Y61C
VL: B1 VL
modifications: cleavable linker peptide P with blocker PEG5K on Cys 61
Binder B20 has a Blocking fold after conjugation [3] of 10 fold.

B21: anti-CD3 antibody mutant VH-Y61C (antibody, V domains shown)
VH: B1 VH with C34M, Y61C
VL: B1 VL
B21 gave a Binding strength of mutants (EC50 mutant/EC50 wild-type) [1] of 5.1.

B22: anti-CD3 VH-Y61C mutant conjugated with PEG5K, after activation (antibody, V domains shown)
VH: B1 VH with C34M, Y61C
VL: B1 VL
modifications: Cys 61 with what is left of the linker after activation (PEG5K blocker released); structure not given
For B22, the Recovery of binding force after activation (%) [4] was 100%.

B23: anti-CD3 VH-Y61C mutant conjugated with cleavable linker and R1 = PEG10K (antibody, V domains shown)
VH: B1 VH with C34M, Y61C
VL: B1 VL
modifications: cleavable linker peptide P with blocker PEG10K on Cys 61
B23 was tested, and the Blocking fold after conjugation [3] was 20 fold.

B24: anti-CD3 VH-Y61C mutant conjugated with PEG10K, after activation (antibody, V domains shown)
VH: B1 VH with C34M, Y61C
VL: B1 VL
modifications: Cys 61 with what is left of the linker after activation (PEG10K blocker released); structure not given
B24 showed a Recovery of binding force after activation (%) [4] of 100%.

B25: anti-CD3 VH-Y61C mutant conjugated with PEG20K, after activation (antibody, V domains shown)
VH: B1 VH with C34M, Y61C
VL: B1 VL
modifications: Cys 61 with what is left of the linker after activation (PEG20K blocker released); structure not given
With B25 the Recovery of binding force after activation (%) [4] was 100%.

B26: anti-CD3 VH-Y61C mutant conjugated with cleavable linker and R1 = PEG40K (antibody, V domains shown)
VH: B1 VH with C34M, Y61C
VL: B1 VL
modifications: cleavable linker peptide P with blocker PEG40K on Cys 61
Binder B26 has a Blocking fold after conjugation [3] of 500 fold.

B27: anti-CD3 VH-Y61C mutant conjugated with PEG40K, after activation (antibody, V domains shown)
VH: B1 VH with C34M, Y61C
VL: B1 VL
modifications: Cys 61 with what is left of the linker after activation (PEG40K blocker released); structure not given
Binder B27 has a Recovery of binding force after activation (%) [4] of 100%.

B28: anti-CD3 antibody mutant VH-F104C (antibody, V domains shown)
VH: B1 VH with C34M, F104C
VL: B1 VL
B28 gave a Binding strength of mutants (EC50 mutant/EC50 wild-type) [1] of 1.

B29: anti-CD3 antibody mutant VH-W111C (antibody, V domains shown)
VH: B1 VH with C34M, W111C
VL: B1 VL
Work on B29 yielded a Binding strength of mutants (EC50 mutant/EC50 wild-type) [1] of 2.

B30: anti-CD3 antibody mutant VL-Y34C (antibody, V domains shown)
VH: B1 VH with C34M
VL: B1 VL with Y34C
With B30 the Binding strength of mutants (EC50 mutant/EC50 wild-type) [1] was 1.2.

B31: anti-CD3 antibody mutant VL-N54C (antibody, V domains shown)
VH: B1 VH with C34M
VL: B1 VL with N54C
With B31 the Binding strength of mutants (EC50 mutant/EC50 wild-type) [1] was 1.
